Test [1] concerns the target T1, human TIGIT on the cell surface (human, UniProt Q495A1 22-244).
T1 sequence: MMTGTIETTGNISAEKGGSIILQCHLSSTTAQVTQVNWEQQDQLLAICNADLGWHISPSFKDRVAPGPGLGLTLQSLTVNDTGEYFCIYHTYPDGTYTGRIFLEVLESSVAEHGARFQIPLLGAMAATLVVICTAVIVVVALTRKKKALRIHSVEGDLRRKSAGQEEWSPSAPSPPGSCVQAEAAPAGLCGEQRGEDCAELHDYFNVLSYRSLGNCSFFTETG
The experiment in a line: cell-based or functional assay.

In test [2] the target is T2, human PVRL4-His (human, UniProt Q96NY8 32-349).
T2 construct: also called Nectin-4; not shown: His tag
T2 sequence (looked up): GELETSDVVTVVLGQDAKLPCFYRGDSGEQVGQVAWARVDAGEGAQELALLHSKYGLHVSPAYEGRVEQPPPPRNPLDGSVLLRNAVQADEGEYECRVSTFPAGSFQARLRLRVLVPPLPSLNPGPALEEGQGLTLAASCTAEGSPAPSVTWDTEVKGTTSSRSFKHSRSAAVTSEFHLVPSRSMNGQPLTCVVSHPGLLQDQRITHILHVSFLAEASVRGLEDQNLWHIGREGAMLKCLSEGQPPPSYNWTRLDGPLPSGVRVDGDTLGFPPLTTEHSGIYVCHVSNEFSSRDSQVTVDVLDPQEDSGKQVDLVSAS
In words: BLI, antibody on AHC sensor, human PVRL4-His in solution. Here is the method:
The BLI analysis was performed at 30° C. using 1× kinetics buffer as assay buffer. AHC sensors were first presoaked in assay buffer for greater than 5 minutes. Antibody (5 μg/mL) was captured on the sensor for 300 seconds. Sensors were then dipped in assay buffer for 120 seconds to establish a baseline before measuring binding to human PVRL4-His protein. Sensors were then dipped into human PVRL4-His (200 nM in assay buffer) for 200 seconds to measure association. Dissociation of PVRL4 was then measured by dipping sensors into assay buffer for 200 seconds. Results were analyzed using Octet® Data Analysis Software Version 8.2.0.7.

Test [3] has as its target T3, recombinant monomeric human TIGIT-His (human, UniProt Q495A1 22-141).
T3 construct: also called hTIGIT; not shown: His tag
T3 sequence: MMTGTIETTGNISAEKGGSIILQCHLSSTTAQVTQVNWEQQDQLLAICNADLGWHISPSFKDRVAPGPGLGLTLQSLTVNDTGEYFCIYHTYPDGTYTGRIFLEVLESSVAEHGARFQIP
The experiment in a line: MSD-SET solution equilibrium titration, monomeric antigen. On the procedure:
(§1) See Estep et al., supra, incorporated by reference in its entirety. Briefly, solution equilibrium titrations (SET) were performed in PBS+0.1% IgG-Free BSA (PBSF) with antigen (TIGIT monomer) held constant at 10-100 pM and incubated with 3- to 5-fold serial dilutions of Fab or mAbs starting at 10 pM-10 nM. Antibodies (20 nM in PBS) were coated onto standard bind MSD-ECL plates overnight at 4° C. or at room temperature for 30 min. Plates were then blocked by BSA for 30 min with shaking at 700 rpm, followed by three washes with wash buffer (PBSF+0.05% Tween 20). SET samples were applied and incubated on the plates for 150s with shaking at 700 rpm followed by one wash. Antigen captured on a plate was detected with 250 ng/mL sulfotag-labeled streptavidin in PBSF by incubation on the plate for 3 min. The plates were washed three times with wash buffer and then read on the MSD Sector Imager 2400 instrument using 1× Read Buffer T with surfactant. The percent free antigen was plotted as a function of titrated antibody in Prism and fit to a quadratic equation to extract the KD. To improve throughput, liquid handling robots were used throughout MSD-SET experiments, including SET sample preparation.

Test [4] deals with T4, recombinant monomeric cynomolgus monkey TIGIT-His (cynomolgus monkey).
T4 construct: also called Cyno TIGIT His; cTIGIT; not shown: His tag
The test is described as above. Here is the method: as §1

The target in test [5] is T3, recombinant monomeric human TIGIT-His. The experiment in a line: BLI (ForteBio), IgG on AHQ sensor, 100 nM monomeric antigen, 1:1 model. On the procedure:
(§2) Quantitative binding of antibodies to recombinant monomeric human, mouse (SEQ ID NO: 3), cynomolgus monkey TIGIT was measured using biolayer interferometry (BLI) with a FORTEBIO®. […] FORTEBIO affinity measurements were performed by loading IgGs on-line onto AHQ sensors. Sensors were equilibrated off-line in assay buffer for 30 min and then monitored on-line for 60 seconds for baseline establishment. Sensors with loaded IgGs were exposed to a single concentration of antigen (100 nM) for 3 minutes. Afterwards they were transferred to assay buffer for 3 minutes for off-rate measurement. Kinetics were analyzed using the 1:1 binding model.
In general terms: Biolayer interferometry detects binding as a change in optical thickness at a sensor tip.

Test [6] deals with T4, recombinant monomeric cynomolgus monkey …. Described as above. Here is the method: as §2
Test [7] addresses T1, human TIGIT on the cell surface. In words: flow cytometry, antibody titrated against labeled PVR-Fc binding to human TIGIT Jurkat cells. Here is the method:
(§3) Quantitative ligand blocking studies were conducted by using a cell surface TIGIT binding assay.
In general terms: In flow cytometry, cells or beads pass a laser one at a time.

The target is the same in test [8]. The experiment in a line: flow cytometry, antibody titrated against labeled PVRL2-Fc binding to human TIGIT Jurkat cells. On the procedure:
as §3

Test [9] concerns the target T3, recombinant monomeric human TIGIT-His. In words: BLI (Octet QKe), antibody on AHC sensor, several concentrations of human TIGIT-His, 1:1 global fit, average. On the procedure: A strategy of capturing anti-TIGIT antibodies on sensors following association/dissociation of monomeric TIGIT proteins was used to avoid avidity effects in the assay. The BLI analysis was performed at 29° C. using 1× kinetics buffer (ForteBio) as assay buffer. Anti-human IgG Fc capture (AHC) biosensors (ForteBio) were first presoaked in assay buffer for over five minutes. Anti-TIGIT antibody (5 μg/mL) was captured on the sensor for 300 seconds. Sensors were then dipped in assay buffer for 120 seconds to establish a baseline before measuring binding to each TIGIT protein. […] Dissociation of TIGIT was measured by dipping the sensors into assay buffer for 600, 1200, or 1800 seconds, depending on the experiment (600 seconds was only used for mouse TIGIT-His). Agitation at all steps was 1000 rpm.
Kinetic parameters were generated with Octet® Data Analysis Software Version 8.2.0.7 using reference subtraction, dissociation based inter-step correction, 1-to-1 binding model, and global fit (Rₘₐₓ unlinked by sensor).

Residue numbers refer to the chain shown, from its start.

T4 sequence (chain, as listed by the source limits assumed): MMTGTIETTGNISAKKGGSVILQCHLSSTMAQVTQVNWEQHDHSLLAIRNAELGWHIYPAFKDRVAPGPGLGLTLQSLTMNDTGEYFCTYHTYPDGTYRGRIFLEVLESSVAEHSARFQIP

B1: MAB3-IgG4 (antibody, V domains shown)
VH: QLQLQESGPGLVKPSETLSLTCTVSGGSISSTSHYWGWIRQPPGKGLEWIGSIYYSGSTFYNPSLKSRVTISVDTSKNQFSLKLSSVTAADTAVYYCARDANYYGSAWAFDPWGQGTLVTVSS
VL: EIVLTQSPATLSLSPGERATLSCRASQSVSSYLAWYQQKPGQAPRLLIYDASNRATGIPARFSGSGSGTDFTLTISSLEPEDFAVYYCQQHFNLPTFGGGTKVEIKR
In general, Kd refers to a measure of binding affinity in units of concentration. For orientation: IC50 means the concentration needed to halve the response being measured. On to B1, for which the “Average EC50, IL-2 production, human TIGIT Jurkat/anti-CD3 HT-1080 co-culture assay” value in test [1] amounted to 0.33 nM. Also, in test [2], the binding result is “no binding (tested: 200 nM)”. Further, the Kd in test [3] came out at 8.1 pM; in test [4], 0.035 nM; in test [5] it was 0.332 nM; in test [6], 0.802 nM. In addition, the IC50 in test [7] was 1.6 nM; in [8], 1.2 nM.

B2: MAB1-IgG4 (antibody, V domains shown)
VH: B1 VH with S30T, T32S, H34Y, S58A
VL: B1 VL
Take B2: the “Average EC50, IL-2 production, human TIGIT Jurkat/anti-CD3 HT-1080 co-culture assay” value in [1] was 0.22 nM. In addition, in test [2], the binding result is recorded as “no binding (tested: 200 nM)”. The Kd in test [3] was 54 pM; in test [4] it was 0.32 nM; in test [5], 0.524 nM; in [6], 2.64 nM. Moreover, the IC50 amounted to 2.2 nM in test [7] and 1.4 nM in test [8].

B3: MAB2-IgG4 (antibody, V domains shown)
VH: B1 VH with T32S, S33K, H34Y
VL: B1 VL
As a reminder, the koff is a measure of how fast the partners let go of each other. The kon is the rate constant with which the complex forms. Turning to B3, the “Average EC50, IL-2 production, human TIGIT Jurkat/anti-CD3 HT-1080 co-culture assay” value in test [1] came out at 0.31 nM. For the same molecule, the binding result in [2] is given as “no binding (tested: 200 nM)”. Moreover, the Kd in test [3] is 25 pM; in test [4] it was 0.23 nM; in test [5], 0.457 nM; in test [6] it was 1.57 nM; in test [9], 0.71 nM. Further, the IC50 in test [7] is 2.3 nM; in test [8] it was 1.3 nM. In addition, the koff in [9] stood at 0.00023 s⁻¹. Further, in test [9], the kon is 320000 M⁻¹ s⁻¹.

B4: MAB5-IgG4 (antibody, V domains shown)
VH: B1 VH with S67G
VL: B1 VL
Regarding B4, the “Average EC50, IL-2 production, human TIGIT Jurkat/anti-CD3 HT-1080 co-culture assay” value in [1] amounted to 0.34 nM. Further, the binding result in test [2] was “no binding (tested: 200 nM)”. The Kd in test [3] worked out at 4.9 pM; in test [4] it was 0.046 nM; in test [5], 0.196 nM; in [6], 0.898 nM; in test [9] it was 0.19 nM. Also, the IC50 in test [7] is 1.7 nM; in test [8], 1.4 nM. In addition, in [9], the off-rate (koff) stood at 0.00014 s⁻¹. Also, the kon in test [9] turned out to be 770000 M⁻¹ s⁻¹.

B5: MAB4-IgG4 (antibody, V domains shown)
VH: B1 VH with S106G
VL: B1 VL
Consider B5, for which the “Average EC50, IL-2 production, human TIGIT Jurkat/anti-CD3 HT-1080 co-culture assay” value in test [1] is 0.34 nM. In addition, the binding result in test [2] is given as “no binding (tested: 200 nM)”. In addition, the Kd in test [3] turned out to be 5 pM; in test [4] it was 0.015 nM; in test [5], 0.246 nM; in test [6], 0.369 nM; in test [9], 0.081 nM. Moreover, the IC50 in test [7] was determined as 1.9 nM; in test [8], 1.6 nM. Besides, the off-rate constant (koff) in test [9] was 6.3e-05 s⁻¹. In addition, the kon in test [9] is 700000 M⁻¹ s⁻¹.

The values above are taken from patent US20170340735A1 (published 2017).
